In patent CN113512113A (THE FIRST AFFILIATED HOSPITAL COLLEGE OF MEDICINE ZHEJIANG …, dated 2021):

B1: CZ-D7 (antibody, V domains shown)
VH: QVQLVQSGAEVKTPGSSVKVSCKASGGSFSNYAISWVRQAPGQGLEWMGRIIATLGISNYAQKFQGRVTMTADKSTSTAYMELSSLRSEDTAVYYCASPITNFGVLIEVDAFHIWGQGTMVTVSS
VL: EIVLTQSPFTLSLSPGERATLSCGASQSVSSSYLAWYQQKPGLAPRLLIYDGSSRATDIPDRFSGSGSGTDFTLTISRLEPEDFAMYYCQQYSTSPLTFGGGTKVEIKR
B2: SW-B1 (antibody, V domains shown)
VH: QVQLVQSGAEVKKPGASVKVSCTASGDTFTTYYMNWMRQAPGQGLEWMGIINPSGGSTSYAQKFQGRVTMTRDTSRSTVYMELSSLRSEDTAVYYCATPSLEEAEGGPQLAFDIWGQGTMVTVSS
VL: not shown
B3: SW-A9 (antibody, V domains shown)
VH: QMQLVQSGPEVKKPGTSVKVSCKASGFTFTNSAMQWVRQARGQRLEWVGWIVVASGNANSARRFHDRVTITSDMSTSTAYLELSSLRSEDTAVYYCALNHCSNTTCLDGFDIWGQGTMVSVSS
VL: EIVLTQSPVTLSLSPGERATLSCRASQSVRNSLLAWYQQKPGQAPRLLIYAASSRATGIPDRFSGSGSGTDFTLTISRLEPEDFVVYYCQQHGSSPPWTFGQGTKVEFKR

target: SARS-Cov-2的生物素化RBD(NC_045512) (SARS-CoV-2, UniProt P0DTC2 319-541)

Q: How did the Kd turn out when B1 was run?
A: < 1 pM

Q: How did the Kd turn out when B2 was run?
A: 94.3 pM

Q: Which Kd does the source give for B3 here?
A: < 1 pM
